Data set [1] is described as follows: Loading experiments: encapsulation efficiency during PPSU20 self-assembly (fluorescence of supernatant). The class given is physicochemical. Here is the method: Loading experiments. For the loading of Nile red, nanogels were prepared using pure water and Nile red-containing (0.1 mg/mL) DMSO solutions of PPSU20. For the loading of water-soluble drugs, aqueous solutions of FITC (0.05 mg/mL), doxorubicin hydrochloride (1 mg/mL), dextran (1 mg/mL), albumin (various concentrations), GFP (0.2 mg/mL), RNA (0.2 mg/mL), DNA (0.2 mg/mL), and DMSO solutions of PPSU20 (25 mg/mL) were used. Typically, 100 μL of the corresponding aqueous solution were mixed stepwise (10 μL/step or 100 μL/step) with 50 μL of PPSU20 solution under vortex, then another 400 μL of water was added. After centrifugation at 16000×g for 10 min, fluorescence of the supernatant was measured and the encapsulation efficiencies were calculated.

A short description of data set [2]: PPSU nanogel biodistribution and toxicity after subcutaneous injection. It counts as in vivo. The following applies: mice, s.c. injection, 48 h, NIRF/IVIS. Here is the method: Assessment of PPSU NBM biodistribution and toxicity: Preliminary assessment of vesicular PPSU nanogel biodistribution 48 h after subcutaneous (s.c.) injection (relevant for vaccination) was performed using near infrared fluorescence (NIRF) agent cardiogreen (ICG) as previously published by the Scott lab^1.

A short description of data set [3]: Adsorption of FITC-BSA by preformed PPSU20 vesicular nanogels. It counts as physicochemical. The note with it: fluorescence in 0.2 N NaOH. Here is the method:
PPSU20 vesicular nanogels were prepared by mixing 100 μL of water or 100 μL of aqueous FITC-BSA (1.0 mg/mL) solution with 100 μL of PPSU20 solution (25 mg/mL in DMSO) under vortex, followed by the addition of 1000 μL of water. Nanogels were collected by centrifugation and purified by 2 rounds of resuspension and centrifugation in 1000 μL of water. The preformed blank vesicular nanogels were further incubated with 100 μL of aqueous FITC-BSA (1.0 mg/mL) solution overnight, giving FITC-BSA-adsorbed nanogels after removal of free FITC-BSA by three rounds of centrifugation and resuspension in water. Blank nanogels, FITC-BSA-loaded nanogels, and FITC-BSA-adsorbed nanogels were resuspened in 1000 μL of water for fluorescence measurements or as the stocking solutions for fluorescence quantitative analysis in sodium hydroxide solution (0.2 N).

The nature of data set [4]: PPSU20 vesicular nanogels formed with a concentration series of FITC-BSA (DLS, zeta potential, encapsulation). It counts as physicochemical.
Another data set concerns the target T1, trypsin protease (Sus scrofa, UniProt P00761).
T1 construct: purchased Promega
Put plainly: Trypsin digestion of FITC-BSA-loaded PPSU20 vesicular nanogels. The following applies: overloaded 10 mg/mL sample; trypsin 2 μg/mL, 24 h, 37° C. It counts as biochemical. Here is the method: Trypsin digestion of FITC-BSA-loaded PPSU20 vesicular nanogels. DMSO solutions of PPSU20 (200 μL, 25 mg/mL) were hydrated using 800 μL of aqueous FITC-BSA solutions (0, 0.1, 1.0, 10.0 mg/mL). DMSO was removed by dialysis after self-assembly. Negatively stained FITC-BSA-loaded PPSU20 vesicular nanogels were characterized by TEM. After removal of unloaded FITC-BSA by three rounds of centrifugation and resuspension in phosphate-buffered saline, FITC-BSA-loaded PPSU20 vesicular nanogels were subjected to digestion with trypsin protease (2 μg/mL; Trypsin Gold, Promega) for 24 h at 37° C., 80 rpm. Undigested FITC-BSA-loaded PPSU20 vesicular nanogels (i.e. no protease treatment) were included as a control. After 24 h incubation with trypsin, FITC fluorescence (Ex=490 nm, Em=525 nm) was quantified in triplicate using a SpectraMax M3 microplate reader (Molecular Devices). The percentage increase in FITC fluorescence (i.e., 100×(F(+)−F(−))/F(−)) after proteolysis was calculated, where F(+) is the fluorescence after protease treatment and F(−) is referred to the fluorescence in the absence of protease treatment.

Data set [5] in a line: Solubility tests using PPSU20 crystals in water and common organic solvents. The class given is physicochemical. The following applies: in words. An excerpt:
PPSU can be synthesized from complete oxidation of poly(propylene sulfide) (PPS) (14, 15), which is known for its hydrophobic—hydrophilic transition upon oxidation (16-18). However, complete oxidation of PPS had not been previously achieved, since standard oxidation of PPS generates random copolymers of poly(propylene sulfoxide)-co-poly(propylene sulfone) (19). We successfully synthesized PPSU20 (20 sulfones, FIG. 5) using an atypically high concentration of H2O2. Highly concentrated H2O2 was generated in situ upon vacuum evaporation during the oxidizing reaction. […] Given that the chemical structure of PPSU (FIG. 1a) is characterized by a positively charged backbone with negatively charged pendent oxygen atoms (20), electrostatic repulsion among oxygen atoms (21) was expected to result in weak inter- and intra-chain associations.

[6] abbreviates: 10 μL/step, mass ratio (drug/PPSU20) 0.004.
The mark [7] stands for this setting: 100 μL/step, mass ratio (drug/PPSU20) 0.004.
The mark [8] stands for this setting: 10 μL/step, mass ratio (drug/PPSU20) 0.08.
[9] abbreviates: 100 μL/step, mass ratio (drug/PPSU20) 0.08.

We go through seven molecules from patent US12472152B2, “Molecular entrapment via homopolymer self-assembly” (Northwestern University, priority 2019, dated 2025).

T1 sequence (P00761 9-231): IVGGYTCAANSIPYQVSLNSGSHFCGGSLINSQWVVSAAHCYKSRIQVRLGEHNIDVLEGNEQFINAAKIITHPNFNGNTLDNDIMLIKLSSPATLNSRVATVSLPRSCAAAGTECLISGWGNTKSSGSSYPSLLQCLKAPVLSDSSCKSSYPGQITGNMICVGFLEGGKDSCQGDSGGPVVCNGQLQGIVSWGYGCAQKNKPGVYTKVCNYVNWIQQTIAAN

fluorescein isothiocyanate [FITC]: the Encapsulation efficiency in data set [1] (setting [6]) and in data set [1] (setting [7]) was over 99% throughout.

Consider `CC1(C)C(/C=C/C=C/C=C/C=C2\N(CCCCS(=O)(=O)[O-])c3ccc4ccccc4c3C2(C)C)=[N+](CCCCS(=O)(=O)[O-])c2ccc3ccccc3c21.[Na+]` [ICG], for which the “biodistribution (organs)” value in data set [2] was “heart, brain and kidneys”.

Turning to Dextran, the Encapsulation efficiency in data set [1] (setting [8]) and in data set [1] (setting [9]) was over 96% each time.

Turning to `CCN(CC)c1ccc2nc3c4ccccc4c(=O)cc-3oc2c1` [Nile red], the Encapsulation efficiency in data set [1] (setting [6]) is on record as over 96%; in data set [1] (setting [7]), over 98%.

On to “Albumin: FITC-labeled albumin (FITC-BSA), a model protein; Table 1 entries 5 to 8”, for which the Encapsulation efficiency was over 99% in data set [1] (setting [8]); over 99% in data set [1] (10 μL/step, mass ratio (drug/PPSU20) 0.4); over 96% in data set [1] (10 μL/step, mass ratio (drug/PPSU20) 0.8); 83% in data set [1] (10 μL/step, mass ratio (drug/PPSU20) 1.2); over 99% in data set [1] (setting [9]); over 99% in data set [1] (100 μL/step, mass ratio (drug/PPSU20) 0.4). Moreover, the Encapsulation efficiency in data set [1] (100 μL/step, mass ratio (drug/PPSU20) 0.8) is given as over 96%; in data set [1] (100 μL/step, mass ratio (drug/PPSU20) 1.2) it was 80%; in data set [3] (FITC-BSA-loaded vesicles, Em=518 nm), 97.8%. Further, the “encapsulation capacity (w/w)” value in data set [1] (Table 1, entry 5 to 7) is reported as “up to 80%”. Moreover, the “encapsulation of protein molecules from aqueous solutions” value in data set [1] (Table 1, entry 5 to 7) is on record as about 100%. The EE entry in data set [1] (nanoparticles contained 20% more protein than polymer by mass (Table 1, entry 8)) was “Over 80%”; in data set [4] (in the presence of 10 mg/mL of protein), 45%; in data set [4] (loading of FITC-BSA at 0.1 mg/mL) it was “approximately 100%”; in data set [4] (loading of FITC-BSA at 1.0 mg/mL), “approximately 100%”. This molecule had an adsorption efficiency in data set [3] (preformed blank vesicles incubated with FITC-BSA overnight) of 6.0%. For the same molecule, the “protein by mass in nanogels” value in data set [4] (10 mg/mL of protein, 3.6 mg FITC-BSA/5 mg PPSU) came to 72%. For the same molecule, the “encapsulated FITC-BSA accessible to cleavage” value with trypsin protease is reported as 30-35%.

For the molecule `CS(C)(=O)=O` [dimethylsulfone], in data set [5], the Solubility in water entry is recorded as “good water-solubility”.

For `COc1cccc2c1C(=O)c1c(O)c3c(c(O)c1C2=O)C[C@@](O)(C(=O)CO)C[C@@H]3O[C@H]1C[C@H](N)[C@H](O)[C@H](C)O1.Cl` [DOX/HCl, doxorubicin hydrochloride], the figures for the Encapsulation efficiency in data set [1] (setting [8]) and in data set [1] (setting [9]) were over 96% and over 97%, respectively.
